In data set [1] the target is P. furiosus Rad50 nucleotide binding domain L51C/L828A, LRET-labelled (UniProt P58301). The experiment in a line: LRET time course. The following applies: Rad50 NBD in MRNBD complex with Mre11; after addition of saturating ATP; parent: est. 1.0; read off a plot.
Data set [2] concerns the target T1, Pf MR^NBD complex (Mre11-Rad50^NBD) (Pyrococcus furiosus, UniProt P58301, DEL196-708).
T1 construct: ~180 kDa complex; with DNA double-strand break repair protein Mre11
In words: Mre11 exonuclease assay, 2-aminopurine fluorescence (Exo2 dsDNA). It is filed as biochemical. The following applies: 1 mM AMP-PNP, 1 mM MnCl2, 5 mM MgCl2, 60 C, pH 7.5; binds Rad50 and stabilizes the closed state that occludes the Mre11 active site.

Data set [3] concerns the target P. furiosus Rad50 nucleotide binding domain L51C/L828F, LRET-labelled (UniProt P58301). In words: LRET time course. The settings on record: Rad50 NBD in MRNBD complex with Mre11; after addition of saturating ATP; parent: est. 1.0; read off a plot.
For data set [4], the target named is P. furiosus Rad50 nucleotide binding domain L51C/D829N, LRET-labelled (UniProt P58301). In words: LRET time course. The settings on record: Rad50 NBD in MRNBD complex with Mre11; after addition of saturating ATP; parent: est. 1.0; read off a plot.
Data set [5] addresses Mre11^HLH-Rad50^NBD, wild type (Pyrococcus furiosus) (UniProt P58301). The experiment in a line: SEC; Superdex 200 Increase 10/300 GL, 4 °C, with 5 mM ATP; fraction dimer = area of the dimer peak over the areas of monomer and dimer peaks; monomer to dimer.
Data set [6] concerns the molecule itself. In words: FRET or BRET; LRET between Tb3+ chelate (donor) and Bodipy FL (acceptor) on L51C of the two Rad50^NBD in MR^NBD complexes with Mre11; donor-sensitized acceptor lifetimes, three-exponential fit; no ATP (apo); 0.5 uM wild type, L828A, D829A or 2.0 uM L828F, D829N complexes; 50 mM Tris, 200 mM NaCl, 5 mM MgCl2, pH 7.5, 50 °C; percent of LRET-visible molecules only.

Data set [7] deals with the molecule itself. The experiment in a line: FRET or BRET; LRET time course: increase of donor-sensitized Bodipy FL emission after addition of 2 mM ATP to MR complexes; kex = k_assoc + k_dissoc of open to closed; 50 mM Tris, 200 mM NaCl, 5 mM MgCl2, pH 7.5, 50 °C.
Data set [8] concerns the molecule itself. In words: FRET or BRET; as a1 but with 2 mM ATP (ATP-bound); MR^NBD complexes with Mre11; 50 mM Tris, 200 mM NaCl, 5 mM MgCl2, pH 7.5, 50 °C; percent of LRET-visible molecules only.

Take “P. furiosus Rad50 nucleotide binding domain L51C, LRET-labelled (from UniProt P58301) L828A”: the ratio to parent in data set [1] amounted to 4.4. `Nc1ncnc2c1ncn2[C@@H]1O[C@H](COP(=O)(O)OP(=O)(O)NP(=O)(O)O)[C@@H](O)[C@H]1O` [AMP-PNP]: the “Mre11 exonuclease assay, 2-aminopurine fluorescence (Exo2 dsDNA)” value in data set [2] is “AMP-PNP, which stabilizes the complex into the closed state and occludes the Mre11 active”.

With “P. furiosus Rad50 nucleotide binding domain L51C, LRET-labelled (from UniProt P58301) L828F”, in data set [3], the ratio to parent was 4.2. Take “P. furiosus Rad50 nucleotide binding domain L51C, LRET-labelled (from UniProt P58301) D829N”: the ratio to parent in data set [4] was found to be 8.7. In data set [5], “Mre11^HLH-Rad50^NBD, wild type (from UniProt P58301 1-195; P58301 709-882) (complex)” registered a percent converted to a stable dimer upon addition of ATP of 30% and a stoichiometry N of 2.

B1: P. furiosus Rad50 nucleotide binding domain L51C/L828F, LRET-labelled (domain or fragment, Pyrococcus furiosus)
chain: MKLERVTVKNFRSHSDTVVEFKEGINLIIGQNGSGKSSLLDAILVGLYWPCRIKDIKKDEFTKVGARDTYIDLIFEKDGTKYRITRRFLKGYSSGEIHAMKRLVGNEWKHVTEPSSKAISAFMEKLIPYNIFLNAIYIRQGQIDAILESDEAREKVVREVLNLDKFETAYKKLSELKKTINNRIKEYRDILARTEGGAGGAGGRERVKKEIKDLEKAKDFTEELIEKVKKYKALAREAALSKIGELASEIFAEFTEGKYSEVVVRAEENKVRLFVVWEGKERPLTFLSGGERIALGLAFRLAMSLYLAGEISLLILDEPTPYFDEERRRKLITIMERYLKKIPQVILVSHDEELKDAADHVIRISLENGSSKVEVVS
modifications: Tb3+ chelate DTPA-cs124-EMPH (donor) or Bodipy FL maleimide (acceptor) on the cysteine L51C
notes: Rad50, Pyrococcus furiosus, amino acids 1-195; linker that replaces most of the coiled-coil and the Zn-hook; Rad50, Pyrococcus furiosus, amino acids 709-882; Measured within the MR^NBD complex with Mre11; also called L828F MR^NBD (LRET); source: labelled and passed over Superdex 200 Increase
Consider B1, for which the “percent of molecules in the closed state” value in data set [6] and in data set [8] was 30% in each case. The “fold faster approach to equilibrium (kex) than wild type” value (from here on “fold faster approach to equilibrium”) in data set [7] was ~4 fold.

B2: P. furiosus Rad50 nucleotide binding domain L51C/L828A, LRET-labelled (domain or fragment, Pyrococcus furiosus)
chain: MKLERVTVKNFRSHSDTVVEFKEGINLIIGQNGSGKSSLLDAILVGLYWPCRIKDIKKDEFTKVGARDTYIDLIFEKDGTKYRITRRFLKGYSSGEIHAMKRLVGNEWKHVTEPSSKAISAFMEKLIPYNIFLNAIYIRQGQIDAILESDEAREKVVREVLNLDKFETAYKKLSELKKTINNRIKEYRDILARTEGGAGGAGGRERVKKEIKDLEKAKDFTEELIEKVKKYKALAREAALSKIGELASEIFAEFTEGKYSEVVVRAEENKVRLFVVWEGKERPLTFLSGGERIALGLAFRLAMSLYLAGEISLLILDEPTPYADEERRRKLITIMERYLKKIPQVILVSHDEELKDAADHVIRISLENGSSKVEVVS
modifications: Tb3+ chelate DTPA-cs124-EMPH (donor) or Bodipy FL maleimide (acceptor) on the cysteine L51C
notes: Rad50, Pyrococcus furiosus, amino acids 1-195; linker that replaces most of the coiled-coil and the Zn-hook; Rad50, Pyrococcus furiosus, amino acids 709-882; Measured within the MR^NBD complex with Mre11; also called L828A MR^NBD (LRET); source: labelled and passed over Superdex 200 Increase
For the molecule B2, the “percent of molecules in the closed state” value in data set [6] worked out at 46%; in data set [8] it was 54%. For the same molecule, the “fold faster approach to equilibrium” value in data set [7] is ~4 fold.

B3: P. furiosus Rad50 nucleotide binding domain L51C/D829A, LRET-labelled (domain or fragment, Pyrococcus furiosus)
chain: MKLERVTVKNFRSHSDTVVEFKEGINLIIGQNGSGKSSLLDAILVGLYWPCRIKDIKKDEFTKVGARDTYIDLIFEKDGTKYRITRRFLKGYSSGEIHAMKRLVGNEWKHVTEPSSKAISAFMEKLIPYNIFLNAIYIRQGQIDAILESDEAREKVVREVLNLDKFETAYKKLSELKKTINNRIKEYRDILARTEGGAGGAGGRERVKKEIKDLEKAKDFTEELIEKVKKYKALAREAALSKIGELASEIFAEFTEGKYSEVVVRAEENKVRLFVVWEGKERPLTFLSGGERIALGLAFRLAMSLYLAGEISLLILDEPTPYLAEERRRKLITIMERYLKKIPQVILVSHDEELKDAADHVIRISLENGSSKVEVVS
modifications: Tb3+ chelate DTPA-cs124-EMPH (donor) or Bodipy FL maleimide (acceptor) on the cysteine L51C
notes: Rad50, Pyrococcus furiosus, amino acids 1-195; linker that replaces most of the coiled-coil and the Zn-hook; Rad50, Pyrococcus furiosus, amino acids 709-882; Measured within the MR^NBD complex with Mre11; also called D829A MR^NBD (LRET); source: labelled and passed over Superdex 200 Increase
B3: the “percent of molecules in the closed state” value turned out to be 42% in data set [6] and 60% in data set [8].

B4: P. furiosus Rad50 nucleotide binding domain L51C/D829N, LRET-labelled (domain or fragment, Pyrococcus furiosus)
chain: MKLERVTVKNFRSHSDTVVEFKEGINLIIGQNGSGKSSLLDAILVGLYWPCRIKDIKKDEFTKVGARDTYIDLIFEKDGTKYRITRRFLKGYSSGEIHAMKRLVGNEWKHVTEPSSKAISAFMEKLIPYNIFLNAIYIRQGQIDAILESDEAREKVVREVLNLDKFETAYKKLSELKKTINNRIKEYRDILARTEGGAGGAGGRERVKKEIKDLEKAKDFTEELIEKVKKYKALAREAALSKIGELASEIFAEFTEGKYSEVVVRAEENKVRLFVVWEGKERPLTFLSGGERIALGLAFRLAMSLYLAGEISLLILDEPTPYLNEERRRKLITIMERYLKKIPQVILVSHDEELKDAADHVIRISLENGSSKVEVVS
modifications: Tb3+ chelate DTPA-cs124-EMPH (donor) or Bodipy FL maleimide (acceptor) on the cysteine L51C
notes: Rad50, Pyrococcus furiosus, amino acids 1-195; linker that replaces most of the coiled-coil and the Zn-hook; Rad50, Pyrococcus furiosus, amino acids 709-882; Measured within the MR^NBD complex with Mre11; also called D829N MR^NBD (LRET); source: labelled and passed over Superdex 200 Increase
Consider B4, for which the “percent of molecules in the closed state” value in data set [6] and in data set [8] was 33% throughout. Further, the “fold faster approach to equilibrium” value in data set [7] was ~8 fold.

These data come from paper PMC7049730 (Nucleic Acids Research, 2019).
